Measured values published in patent US20140120095A1 (Boehringer Ingelheim, published 2014).
Values belong to the binder of their own block, whether it stands above or below them.

Assays:
[1] = target: T1, human Jagged-1 (human, UniProt P78504 34-1067, limits assumed); assay: binding ELISA on coated recombinant human Jagged-1, OD 405 nm
T1 construct: also called hJagged-1; hJAG1
Experimental: (§1) Absence of binding to homologous ligands human DLL1 and human Jagged-1 is assessed via solid phase binding assay (ELISA). In brief, human DLL1 (Alexis, San Diego, Calif., USA) and human Jagged-1 (Alexis, San Diego, Calif., USA) are coated overnight at 4° C. at 1 μg/mL in a 96-well MaxiSorp plate (Nunc, Wiesbaden, Germany). Wells are blocked with a casein solution (1% in PBS). VHHs are applied as dilution series and binding is detected using a mouse anti-myc (Roche) and an anti-mouse-AP conjugate (Sigma, St. Louis, Mo., USA).

[2] = target: T2, mouse DLL4 overexpressed on cells (mouse, UniProt Q9JI71 27-686); assay: competitive FMAT, hNotch1-Fc on CHO-mDLL4
T2 construct: whole, on cells; also called CHO-mDLL4; CHO-mDII4
T2 sequence (Q9JI71 27-686): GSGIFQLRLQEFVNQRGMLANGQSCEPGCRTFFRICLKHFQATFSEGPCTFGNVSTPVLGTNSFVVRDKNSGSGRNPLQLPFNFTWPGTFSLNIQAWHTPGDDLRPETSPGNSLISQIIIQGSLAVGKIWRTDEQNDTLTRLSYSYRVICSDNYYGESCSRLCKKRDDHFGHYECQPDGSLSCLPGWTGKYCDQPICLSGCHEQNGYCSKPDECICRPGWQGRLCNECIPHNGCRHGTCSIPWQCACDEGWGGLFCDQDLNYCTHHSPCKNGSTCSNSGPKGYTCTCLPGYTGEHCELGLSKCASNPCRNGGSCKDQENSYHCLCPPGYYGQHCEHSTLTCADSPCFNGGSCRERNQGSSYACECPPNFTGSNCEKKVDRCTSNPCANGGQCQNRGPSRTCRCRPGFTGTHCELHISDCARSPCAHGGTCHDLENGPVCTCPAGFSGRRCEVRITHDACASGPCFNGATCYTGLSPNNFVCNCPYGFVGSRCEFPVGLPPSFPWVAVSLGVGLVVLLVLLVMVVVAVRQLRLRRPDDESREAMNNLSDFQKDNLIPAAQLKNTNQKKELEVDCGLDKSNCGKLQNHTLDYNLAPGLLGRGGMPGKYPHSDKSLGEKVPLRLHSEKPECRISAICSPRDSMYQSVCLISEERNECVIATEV

[3] = target: T3, human DLL1 (human, UniProt O00548 18-545, limits assumed); assay: binding ELISA on coated recombinant human DLL1, OD 405 nm
T3 construct: also called hDLL1
T3 sequence (looked up): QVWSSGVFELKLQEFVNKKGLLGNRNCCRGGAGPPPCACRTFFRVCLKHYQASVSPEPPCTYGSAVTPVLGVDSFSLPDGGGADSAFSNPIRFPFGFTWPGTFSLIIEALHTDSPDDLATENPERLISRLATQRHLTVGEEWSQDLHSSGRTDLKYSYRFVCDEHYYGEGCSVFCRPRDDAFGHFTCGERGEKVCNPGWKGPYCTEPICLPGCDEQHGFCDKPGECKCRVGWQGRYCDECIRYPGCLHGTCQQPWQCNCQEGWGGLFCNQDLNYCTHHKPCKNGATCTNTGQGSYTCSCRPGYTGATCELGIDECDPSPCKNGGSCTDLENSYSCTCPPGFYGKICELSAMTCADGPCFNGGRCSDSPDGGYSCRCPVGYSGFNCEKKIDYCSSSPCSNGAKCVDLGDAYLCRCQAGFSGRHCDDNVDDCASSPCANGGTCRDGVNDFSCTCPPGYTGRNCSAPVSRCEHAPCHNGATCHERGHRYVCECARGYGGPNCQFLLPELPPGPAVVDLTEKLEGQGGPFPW
Experimental: as §1

[4] = target: T4, recombinant mouse DLL4 (mouse, UniProt Q9JI71 27-532); assay: binding ELISA, coated rmDLL4
T4 construct: extracellular domain; also called rmDLL4; mDLL4
T4 sequence (Q9JI71 27-532): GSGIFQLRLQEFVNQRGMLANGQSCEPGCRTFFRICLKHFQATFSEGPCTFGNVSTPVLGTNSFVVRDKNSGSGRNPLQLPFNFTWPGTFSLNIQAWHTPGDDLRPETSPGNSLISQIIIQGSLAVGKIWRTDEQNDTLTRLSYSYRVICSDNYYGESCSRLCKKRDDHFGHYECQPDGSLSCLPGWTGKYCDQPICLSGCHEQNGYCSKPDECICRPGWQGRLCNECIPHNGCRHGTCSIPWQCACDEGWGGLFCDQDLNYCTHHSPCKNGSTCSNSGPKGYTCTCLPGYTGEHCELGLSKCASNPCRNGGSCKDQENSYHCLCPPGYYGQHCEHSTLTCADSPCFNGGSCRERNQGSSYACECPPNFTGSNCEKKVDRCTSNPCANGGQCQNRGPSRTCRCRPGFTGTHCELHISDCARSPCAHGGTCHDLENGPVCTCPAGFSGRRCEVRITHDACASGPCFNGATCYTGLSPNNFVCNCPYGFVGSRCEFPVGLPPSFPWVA
Experimental: (§2) In order to determine cross-reactivity to mouse DII4 a binding ELISA is performed. […] Wells are blocked with a casein solution (1% in PBS). VHHs are applied as dilution series and binding is detected using a mouse anti-myc (Roche) and an anti-mouse-AP conjugate (Sigma, St Louis, Mo., USA) (FIG. 7 A-H). As reference, binding to human DII4 is measured.

[5] = target: T5, human DLL4 overexpressed on cells (human, UniProt Q9NR61 27-685); assay: competitive FMAT, hNotch1-Fc on CHO-hDLL4
T5 construct: full length human DLL4 on CHO or HEK293 cells; also called CHO-hDLL4; CHO-hDII4

[6] = target: T6, recombinant human DLL4 (human, UniProt Q9NR61 25-522); assay: competition ELISA, biot-hDLL4 to coated hNotch1-Fc
T6 construct: also called rhDLL4; hDLL4
Description: Residual binding of biotinylated human DII4 is detected using horseradish peroxidase (HRP) conjugated extravidin (Sigma, St. Louis, Mo., USA) (FIG. 3 A-C). Human DII4 is biotinylated as described above.

[7] = target: T6, recombinant human DLL4; assay: binding ELISA, coated rhDLL4
Experimental: as §2

[8] = target: T5, human DLL4 overexpressed on cells; assay: FACS titration on HEK293-hDLL4 cells, MCF
Experimental: (§3) In order to determine the cynomologus cross-reactivity of the VHHs, a FACS binding experiment is performed. Cynomolgus DII4 expressing HEK293 cells (transient or stable transfection) are used for a titration binding experiment of the VHHs. After a 30 minutes incubation on ice, all samples are washed and detection is performed by applying anti-c-myc˜Alexa647 (Santa Cruz Biotechnology, Santa Cruz, Calif., USA). Human and mouse DII4 overexpressing HEK293 cells are taken as reference. The mean MCF value is determined on the FACS Array and used for calculation of the EC₅₀ value (see FIG. 9 A-E).

[9] = target: T7, cynomolgus DLL4 overexpressed on cells (cynomolgus, UniProt Q9NR61 27-685 (human entry)); assay: FACS titration on HEK293-cDLL4 cells, MCF
T7 construct: also called cyno DII4; cDLL4
T7 chain: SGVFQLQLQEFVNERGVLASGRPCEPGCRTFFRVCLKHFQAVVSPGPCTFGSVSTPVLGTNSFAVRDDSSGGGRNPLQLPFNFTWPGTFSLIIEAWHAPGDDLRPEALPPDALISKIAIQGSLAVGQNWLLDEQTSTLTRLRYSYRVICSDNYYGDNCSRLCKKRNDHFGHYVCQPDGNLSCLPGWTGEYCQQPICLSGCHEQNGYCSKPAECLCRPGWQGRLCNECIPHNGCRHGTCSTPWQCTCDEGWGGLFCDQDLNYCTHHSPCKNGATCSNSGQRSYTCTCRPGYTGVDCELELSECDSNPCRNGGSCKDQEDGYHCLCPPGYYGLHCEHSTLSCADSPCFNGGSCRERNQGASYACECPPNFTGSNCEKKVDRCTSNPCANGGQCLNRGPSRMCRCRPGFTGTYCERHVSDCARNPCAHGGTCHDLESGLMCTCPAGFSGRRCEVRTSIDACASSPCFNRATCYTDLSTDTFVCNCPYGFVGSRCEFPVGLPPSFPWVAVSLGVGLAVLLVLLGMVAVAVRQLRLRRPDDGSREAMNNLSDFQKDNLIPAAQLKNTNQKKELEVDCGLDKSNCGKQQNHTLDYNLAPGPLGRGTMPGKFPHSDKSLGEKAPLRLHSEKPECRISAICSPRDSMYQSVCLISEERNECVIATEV
Experimental: as §3

[10] = target: T6, recombinant human DLL4; assay: competition AlphaScreen, biot-hDLL4/hNotch1-Fc
Experimental: In brief, 1 nM biotinylated human DII4 is captured on streptavidin-coated donor beads (20 μg/mL), while 0.4 nM of the receptor human Notch1 (as a Fc fusion protein) is captured on anti-human Fc VHH-coated acceptor beads (20 μg/mL). Both loaded beads are incubated together with a dilution range of the competing VHH (FIG. 4 A-E).

[11] = target: T6, recombinant human DLL4; assay: SPR Biacore T100, hDLL4 on chip, VHH/Fab injected
Experimental: (§4) Kinetic analysis to determine the affinity of the DII4-VHH interaction is performed by Surface Plasmon Resonance (SPR) on a Biacore T100 instrument. […] Purified VHHs or Fab fragment are injected for 2 minutes at different concentrations (between 10 and 300 nM) and allowed to dissociate for 20 min at a flow rate of 45 μl/min. Between sample injections, the surfaces are regenerated with 10 mM glycine pH1.5 and 100 mM HCl. HBS-N (Hepes buffer pH7.4) is used as running buffer. If possible, data are evaluated by fitting a 1:1 interaction model (Langmuir binding) onto the binding curves. The affinity constant KD is calculated from resulting association and dissociation rate constants (kₐ) and […].

[12] = target: T8, recombinant human DLL4 (C-terminally His-tagged extracellular domain, R&D Systems) (human, UniProt Q9NR61 25-522, biotinylated in the competition ELISA); assay: SPR (Biacore), recombinant human DLL4
T8 construct: also called rhDLL4; hDLL4
Experimental: as §4

[13] = target: T9, human DLL4 expressed on cells (CHO-hDLL4; HEK293-hDLL4) (human, UniProt Q9NR61 27-685); assay: competition FMAT, labelled hNotch1-Fc on CHO-hDLL4 cells
T9 construct: full length human DLL4 overexpressed on CHO cells (FMAT, FACS) or HEK293 cells (reporter assay)

[14] = target: T8, recombinant human DLL4 (C-terminally …); assay: competition ELISA hDLL4/hNotch1-Fc; summary table
[15] = target: T8, recombinant human DLL4 (C-terminally …); assay: competition ELISA, biotinylated hDLL4 to coated hNotch1-Fc
[16] = target: T9, human DLL4 expressed on cells …; assay: cell-based or functional assay
[17] = target: T5, human DLL4 overexpressed on cells; assay: FMAT, labelled hNotch1-Fc on CHO-hDLL4, periplasmic extract
Description: (§5) All calculations are based on the FL1_total signal which comprises the average of the fluorescence per well times the number of counts per well.

[18] = target: T6, recombinant human DLL4; assay: Biacore off-rate, periplasmic extract
[19] = target: T2, mouse DLL4 overexpressed on cells; assay: FMAT, labelled hNotch1-Fc on CHO-mDLL4, periplasmic extract
Description: as §5

- binding result [1]: no binding (tested: 2.5e-7 M)
- IC50 [2]: 41 nM
- binding result [3]: no binding (tested: 2.5e-7 M)
- EC50 [4]: 30 nM
- IC50 [5]: 39.1 nM
- IC50 [6]: 12.3 nM
- EC50 [7]: 13.1 nM
- EC50 (read off the curve) [8]: ~7 nM
- EC50 (read off the curve) [9]: ~6 nM
- IC50 [10]: 2.3 nM
B1: DLLBII55D12 (VHH)
VHH: EVQLVESGGGLVQPGGSLRLSCAASGFTFDDYAIGWFRQAPGKEPEGISCISSSGGITYYADSVKGRFTISRDNAKNTVYLQMNSLKPEDTAVYYCATPGIAACRGIHYTGQGTQVTVSS

- binding result [1]: no binding (tested: 2.5e-7 M)
- IC50 [2]: 33.7 nM
- EC50 [4]: 8.7 nM
- IC50 [5]: 22 nM
- IC50 [6]: 6.9 nM
- EC50 [7]: 4.1 nM
- EC50 (read off the curve) [8]: ~7 nM
- Kd [11]: 9.4 nM
- koff [11]: 0.0011 s⁻¹
- kon [11]: 120000 M⁻¹ s⁻¹
- EC50 (read off the curve) [9]: ~4 nM
- IC50 [10]: 1.6 nM
B2: DLLBII56H08 (VHH)
VHH: EVQLVESGGGLVQPGGSLRLSCAASGFTFDDYAIGWFRQAPGKEPEEISCISSSGGITYYADSVKGRFTISRDNAKNTVYLQMNSLKPEDTAVYYCATPGIAACRGIHYTGQGTQVTVSS

- Kd [12]: 1.3 nM
- koff [12]: 0.00074 s⁻¹
- kon [12]: 570000 M⁻¹ s⁻¹
- IC50 [13]: 3 nM
B3: DLLBII019 (VHH, not shown: small tags and cut ends)
VHH: EVQLVESGGGLVQPGGSLRLSCAASGFTFGSYDMSWVRRSPGKGPEWVSSINSGGGSTYYADYVKGRFTISRDNAKNTLYLQMNSLRPEDTAVYYCAADRYIWARQGEYWGAYEYDYWGQGTLVTVSS

- Kd [12]: 27 nM
- koff [12]: 0.0093 s⁻¹
- kon [12]: 340000 M⁻¹ s⁻¹
- IC50 [13]: 44.6 nM
B4: DLLBII020 (VHH, not shown: small tags and cut ends)
VHH: EVQLVESGGGLVQPGGSLRLSCAASGFTFGSYDMSWVRQSPGKGPEWVSSINSGGGSTYYADYVKGRFTISRDNAKNTLYLQMNSLRPEDTAVYYCAADRYIWARQGEYWGAYEYDYWGQGTLVTVSS

- Kd [12]: 46 nM
- koff [12]: 0.022 s⁻¹
- kon [12]: 470000 M⁻¹ s⁻¹
- IC50 [13]: 95.4 nM
B5: DLLBII022 (VHH, not shown: small tags and cut ends)
VHH: EVQLVESGGGLVQPGGSLRLSCAASGFTFGSYDMSWVRQAPGKGPEWVSSINSGGGSTYYADYVKGRFTISRDNAKNTLYLQMNSLRPEDTAVYYCAADRYIWARQGEYWGAYEYDYWGQGTLVTVSS

- Kd [12]: 1 nM
- koff [12]: 0.00057 s⁻¹
- kon [12]: 560000 M⁻¹ s⁻¹
- IC50 [13]: 2.1 nM
B6: DLLBII021 (VHH, not shown: small tags and cut ends)
VHH: EVQLVESGGGLVQPGGSLRLSCAASGFTFGSYDMSWVRRAPGKGPEWVSSINSGGGSTYYADYVKGRFTISRDNAKNTLYLQMNSLRPEDTAVYYCAADRYIWARQGEYWGAYEYDYWGQGTLVTVSS

- IC50 [14]: 1.3 nM
- IC50 [15]: 1.3 nM
- IC50, DLL4-mediated reporter assay [16]: 18 nM
B7: DLLBII134D10 (VHH, not shown: small tags and cut ends)
VHH: EVQLVESGGGLVQPGGSLRLSCAASGFTIGSYDMSWVRRSPGKGPEWVSSINSGGGSTYYTDYVKGRFTISRDNAKNTLYLQMNSLKPEDTAVYYCAADRYIWARQGEYWGAYAYDYWGQGTQVTVSS

- % inh [17]: 87%
- koff [18]: 0.00041 s⁻¹
- % inh [19]: 93%
B8: DLLBII83G01 (VHH)
VHH: EVQLVESGGGLVQAGGSLRLSCAASGRTFSNYIMGWFRQAPGKEREFVAGISRYADYTGYADSVKGRFTISRDNVKNTVYLRMNSLKPDDTAVYYCAANEGYCSGYGCYEDSGQYDYWGQGTQVTVSS
